B1: Peroxisomal biogenesis factor 19 (Homo sapiens), P40855 (parent)
chain: MAAAEEGCSVGAEADRELEELLESALDDFDKAKPSPAPPSTTTAPDASGPQKRSPGDTAKDALFASQEKFFQELFDSELASQATAEFEKAMKELAEEEPHLVEQFQKLSEAAGRVGSDMTSQQEFTSCLKETLSGLAKNATDLQNSSMSEEELTKAMEGLGMDEGDGEGNILPIMQSIMQNLLSKDVLYPSLKEITEKYPEWLQSHRESLPPEQFEKYQEQHSVMCKICEQFEAETPTDSETTQKARFEMVLDLMQQLQDLGHPPKELAGEMPPGLNFDLDALNLSGPPGASGEQCLIM
partner: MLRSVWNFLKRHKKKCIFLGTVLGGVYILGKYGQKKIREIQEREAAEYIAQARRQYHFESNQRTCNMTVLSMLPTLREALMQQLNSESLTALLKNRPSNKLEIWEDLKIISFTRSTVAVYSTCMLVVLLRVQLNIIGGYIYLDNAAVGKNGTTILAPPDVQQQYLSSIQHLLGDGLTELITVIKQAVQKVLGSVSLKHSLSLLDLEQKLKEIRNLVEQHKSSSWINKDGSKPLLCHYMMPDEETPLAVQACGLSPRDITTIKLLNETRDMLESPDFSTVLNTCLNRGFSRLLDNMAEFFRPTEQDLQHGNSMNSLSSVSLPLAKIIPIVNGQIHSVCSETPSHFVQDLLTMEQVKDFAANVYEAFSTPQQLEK
B2: Rho guanine nucleotide exchange factor 39 (Homo sapiens), Q8N4T4 (parent)
chain: MELSCPGSRCPVQEQRARWERKRACTARELLETERRYQEQLGLVATYFLGILKAKGTLRPPERQALFGSWELIYGASQELLPYLEGGCWGQGLEGFCRHLELYNQFAANSERSQTTLQEQLKKNKGFRRFVRLQEGRPEFGGLQLQDLLPLPLQRLQQYENLVVALAENTGPNSPDHQQLTRAARLISETAQRVHTIGQKQKNDQHLRRVQALLSGRQAKGLTSGRWFLRQGWLLVVPPHGEPRPRMFFLFTDVLLMAKPRPPLHLLRSGTFACKALYPMAQCHLSRVFGHSGGPCGGLLSLSFPHEKLLLMSTDQEELSRWYHSLTWAISSQKN
partner: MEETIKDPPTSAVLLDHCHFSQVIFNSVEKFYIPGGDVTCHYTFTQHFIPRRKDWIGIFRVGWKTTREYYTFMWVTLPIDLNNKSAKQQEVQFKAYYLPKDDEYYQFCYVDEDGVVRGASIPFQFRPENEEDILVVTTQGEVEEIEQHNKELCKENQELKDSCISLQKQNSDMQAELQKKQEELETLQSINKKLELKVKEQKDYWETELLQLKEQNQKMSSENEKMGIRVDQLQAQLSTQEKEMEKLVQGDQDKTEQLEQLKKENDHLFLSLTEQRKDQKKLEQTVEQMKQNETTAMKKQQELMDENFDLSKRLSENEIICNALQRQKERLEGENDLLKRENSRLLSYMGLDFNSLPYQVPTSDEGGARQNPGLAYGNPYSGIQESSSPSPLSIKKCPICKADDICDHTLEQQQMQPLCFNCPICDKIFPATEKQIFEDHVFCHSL
B3: Isoform 1 of Mothers against decapentaplegic homolog 3 (Homo sapiens), P84022-1 (parent)
chain: MSSILPFTPPIVKRLLGWKKGEQNGQEEKWCEKAVKSLVKKLKKTGQLDELEKAITTQNVNTKCITIPRSLDGRLQVSHRKGLPHVIYCRLWRWPDLHSHHELRAMELCEFAFNMKKDEVCVNPYHYQRVETPVLPPVLVPRHTEIPAEFPPLDDYSHSIPENTNFPAGIEPQSNIPETPPPGYLSEDGETSDHQMNHSMDAGSPNLSPNPMSPAHNNLDLQPVTYCEPAFWCSISYYELNQRVGETFHASQPSMTVDGFTDPSNSERFCLGLLSNVNRNAAVELTRRHIGRGVRLYYIGGEVFAECLSDSAIFVQSPNCNQRYGWHPATVCKIPPGCNLKIFNNQEFAALLAQSVNQGFEAVYQLTRMCTIRMSFVKGWGAEYRRQTVTSTPCWIELHLNGPLQWLDKVLTQMGSPSIRCSSVS
B4: Methylthioribulose-1-phosphate dehydratase (Homo sapiens), Q96GX9 (parent)
chain: MSGCDAREGDCCSRRCGAQDKEHPRYLIPELCKQFYHLGWVTGTGGGISLKHGDEIYIAPSGVQKERIQPEDMFVCDINEKDISGPSPSKKLKKSQCTPLFMNAYTMRGAGAVIHTHSKAAVMATLLFPGREFKITHQEMIKGIKKCTSGGYYRYDDMLVVPIIENTPEEKDLKDRMAHAMNEYPDSCAVLVRRHGVYVWGETWEKAKTMCECYDYLFDIAVSMKKVGLDPSQLPVGENGIV
partner: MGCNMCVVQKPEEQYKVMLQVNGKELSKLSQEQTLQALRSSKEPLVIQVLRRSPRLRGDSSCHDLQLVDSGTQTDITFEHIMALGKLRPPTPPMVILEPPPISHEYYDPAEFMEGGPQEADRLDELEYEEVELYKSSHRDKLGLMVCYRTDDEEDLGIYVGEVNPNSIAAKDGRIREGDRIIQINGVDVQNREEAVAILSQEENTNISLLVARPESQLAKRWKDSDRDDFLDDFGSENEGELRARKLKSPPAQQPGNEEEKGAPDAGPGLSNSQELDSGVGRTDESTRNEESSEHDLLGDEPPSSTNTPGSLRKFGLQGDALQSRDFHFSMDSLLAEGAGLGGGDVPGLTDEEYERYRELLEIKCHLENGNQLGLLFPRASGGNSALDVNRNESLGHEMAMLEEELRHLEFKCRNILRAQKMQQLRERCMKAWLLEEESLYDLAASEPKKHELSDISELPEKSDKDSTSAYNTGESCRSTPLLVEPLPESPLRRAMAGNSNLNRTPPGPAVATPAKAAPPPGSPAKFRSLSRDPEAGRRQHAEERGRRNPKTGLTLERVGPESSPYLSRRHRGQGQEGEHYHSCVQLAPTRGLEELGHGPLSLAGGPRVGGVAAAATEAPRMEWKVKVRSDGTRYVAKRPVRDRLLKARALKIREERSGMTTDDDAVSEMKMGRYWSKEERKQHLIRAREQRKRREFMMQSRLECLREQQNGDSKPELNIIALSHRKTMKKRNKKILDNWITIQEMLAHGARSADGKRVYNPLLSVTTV
B5: Chondroitin sulfate N-acetylgalactosaminyltransferase 2 (Homo sapiens), Q8N6G5 (parent)
chain: MPRRGLILHTRTHWLLLGLALLCSLVLFMYLLECAPQTDGNASLPGVVGENYGKEYYQALLQEQEEHYQTRATSLKRQIAQLKQELQEMSEKMRSLQERRNVGANGIGYQSNKEQAPSDLLEFLHSQIDKAEVSIGAKLPSEYGVIPFESFTLMKVFQLEMGLTRHPEEKPVRKDKRDELVEVIEAGLEVINNPDEDDEQEDEEGPLGEKLIFNENDFVEGYYRTERDKGTQYELFFKKADLTEYRHVTLFRPFGPLMKVKSEMIDITRSIINIIVPLAERTEAFVQFMQNFRDVCIHQDKKIHLTVVYFGKEGLSKVKSILESVTSESNFHNYTLVSLNEEFNRGRGLNVGARAWDKGEVLMFFCDVDIYFSAEFLNSCRLNAEPGKKVFYPVVFSLYNPAIVYANQEVPPPVEQQLVHKKDSGFWRDFGFGMTCQYRSDFLTIGGFDMEVKGWGGEDVHLYRKYLHGDLIVIRTPVPGLFHLWHEKRCADELTPEQYRMCIQSKAMNEASHSHLGMLVFREEIETHLHKQAYRTNSEAVG
partner: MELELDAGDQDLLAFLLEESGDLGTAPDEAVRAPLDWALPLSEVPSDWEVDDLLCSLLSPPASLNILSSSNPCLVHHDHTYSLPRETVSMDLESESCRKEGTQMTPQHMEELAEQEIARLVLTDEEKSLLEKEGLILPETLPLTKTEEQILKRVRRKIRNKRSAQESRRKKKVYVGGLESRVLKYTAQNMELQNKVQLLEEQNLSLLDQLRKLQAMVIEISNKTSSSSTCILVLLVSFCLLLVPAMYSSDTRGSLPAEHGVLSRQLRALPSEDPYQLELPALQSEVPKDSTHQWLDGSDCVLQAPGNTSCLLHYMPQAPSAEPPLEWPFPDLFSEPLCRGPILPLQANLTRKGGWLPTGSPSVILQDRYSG
B6: Circadian locomoter output cycles protein kaput (Homo sapiens), O15516 (parent)
chain: MLFTVSCSKMSSIVDRDDSSIFDGLVEEDDKDKAKRVSRNKSEKKRRDQFNVLIKELGSMLPGNARKMDKSTVLQKSIDFLRKHKEITAQSDASEIRQDWKPTFLSNEEFTQLMLEALDGFFLAIMTDGSIIYVSESVTSLLEHLPSDLVDQSIFNFIPEGEHSEVYKILSTHLLESDSLTPEYLKSKNQLEFCCHMLRGTIDPKEPSTYEYVKFIGNFKSLNSVSSSAHNGFEGTIQRTHRPSYEDRVCFVATVRLATPQFIKEMCTVEEPNEEFTSRHSLEWKFLFLDHRAPPIIGYLPFEVLGTSGYDYYHVDDLENLAKCHEHLMQYGKGKSCYYRFLTKGQQWIWLQTHYYITYHQWNSRPEFIVCTHTVVSYAEVRAERRRELGIEESLPETAADKSQDSGSDNRINTVSLKEALERFDHSPTPSASSRSSRKSSHTAVSDPSSTPTKIPTDTSTPPRQHLPAHEKMVQRRSSFSSQSINSQSVGSSLTQPVMSQATNLPIPQGMSQFQFSAQLGAMQHLKDQLEQRTRMIEANIHRQQEELRKIQEQLQMVHGQGLQMFLQQSNPGLNFGSVQLSSGNSSNIQQLAPINMQGQVVPTNQIQSGMNTGHIGTTQHMIQQQTLQSTSTQSQQNVLSGHSQQTSLPSQTQSTLTAPLYNTMVISQPAAGSMVQIPSSMPQNSTQSAAVTTFTQDRQIRFSQGQQLVTKLVTAPVACGAVMVPSTMLMGQVVTAYPTFATQQQQSQTLSVTQQQQQQSSQEQQLTSVQQPSQAQLTQPPQQFLQTSRLLHGNPSTQLILSAAFPLQQSTFPQSHHQQHQSQQQQQLSRHRTDSLPDPSKVQPQ

Variants of: B1
Conditions: with pex3_human PEX3, P56589

| Variant | effect of a mutation on the interaction |
| --- | --- |
| A85V | with no effect |
| R207G | with no effect |

Variants of: B2
Conditions: with caco2_human CALCOCO2, Q13137

| Variant | effect of a mutation on the interaction |
| --- | --- |
| D204N | with no effect |
| R230C | with no effect |

Variants of: B3
Conditions: with smad4_human SMAD4, Q13485
Sequence of smad4_human SMAD4, Q13485 (Q13485 whole entry): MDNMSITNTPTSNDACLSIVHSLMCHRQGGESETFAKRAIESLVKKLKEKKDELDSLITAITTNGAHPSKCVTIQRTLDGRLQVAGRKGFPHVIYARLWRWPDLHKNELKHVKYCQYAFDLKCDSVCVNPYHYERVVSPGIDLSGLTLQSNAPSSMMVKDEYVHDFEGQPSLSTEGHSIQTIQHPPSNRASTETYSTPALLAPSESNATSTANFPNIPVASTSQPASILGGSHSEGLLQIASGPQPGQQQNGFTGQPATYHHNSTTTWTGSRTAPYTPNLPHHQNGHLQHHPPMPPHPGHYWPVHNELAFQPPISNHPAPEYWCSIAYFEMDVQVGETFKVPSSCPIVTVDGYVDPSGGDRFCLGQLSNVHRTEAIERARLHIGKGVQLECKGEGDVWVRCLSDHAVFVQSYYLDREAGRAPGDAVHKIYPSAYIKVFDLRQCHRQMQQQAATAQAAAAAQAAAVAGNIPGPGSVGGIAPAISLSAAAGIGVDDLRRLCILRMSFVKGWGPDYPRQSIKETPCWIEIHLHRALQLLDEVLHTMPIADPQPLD

| Variant | effect of a mutation on the interaction |
| --- | --- |
| P393L | with no effect |

Variants of: B3
Conditions: with smad4_human SMAD4, Q13485
Remark: another data set of the same source

| Variant | effect of a mutation on the interaction |
| --- | --- |
| I170V | with no effect |

Variants of: B3
Conditions: with ccd33_human CCDC33, Q8N5R6
Sequence of ccd33_human CCDC33, Q8N5R6 (Q8N5R6 whole entry): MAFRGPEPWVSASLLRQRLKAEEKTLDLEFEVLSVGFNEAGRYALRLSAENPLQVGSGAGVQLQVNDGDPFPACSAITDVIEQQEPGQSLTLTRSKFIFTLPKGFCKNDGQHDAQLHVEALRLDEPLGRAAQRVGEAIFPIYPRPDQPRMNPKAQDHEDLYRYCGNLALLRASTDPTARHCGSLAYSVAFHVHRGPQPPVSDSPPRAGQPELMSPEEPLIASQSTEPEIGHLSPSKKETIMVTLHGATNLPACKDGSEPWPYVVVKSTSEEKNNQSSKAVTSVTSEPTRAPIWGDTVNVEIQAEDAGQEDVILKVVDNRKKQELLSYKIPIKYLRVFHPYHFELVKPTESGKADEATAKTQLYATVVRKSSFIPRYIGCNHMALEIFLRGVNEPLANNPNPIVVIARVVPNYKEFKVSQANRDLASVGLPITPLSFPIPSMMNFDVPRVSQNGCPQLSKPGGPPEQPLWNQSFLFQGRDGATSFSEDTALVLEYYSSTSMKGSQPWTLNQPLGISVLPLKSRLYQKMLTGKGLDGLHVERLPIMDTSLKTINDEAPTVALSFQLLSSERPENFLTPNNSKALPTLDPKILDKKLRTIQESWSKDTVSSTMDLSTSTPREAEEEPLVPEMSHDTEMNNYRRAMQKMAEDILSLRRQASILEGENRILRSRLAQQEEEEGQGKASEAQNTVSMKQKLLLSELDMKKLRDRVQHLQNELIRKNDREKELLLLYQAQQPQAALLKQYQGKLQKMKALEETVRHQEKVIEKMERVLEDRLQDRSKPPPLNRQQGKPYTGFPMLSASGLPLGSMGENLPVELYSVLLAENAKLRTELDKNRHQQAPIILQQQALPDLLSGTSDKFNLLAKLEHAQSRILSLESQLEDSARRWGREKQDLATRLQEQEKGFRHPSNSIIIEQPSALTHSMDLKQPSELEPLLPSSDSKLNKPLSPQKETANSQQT

| Variant | effect of a mutation on the interaction |
| --- | --- |
| I170V | with no effect |

Variants of: B4
Conditions: with pdzd4_human PDZD4, Q76G19

| Variant | effect of a mutation on the interaction |
| --- | --- |
| G111A | with no effect |
| M181V | with no effect |

Variants of: B5
Conditions: with creb3_human CREB3, O43889

| Variant | effect of a mutation on the interaction |
| --- | --- |
| P479S | with no effect |

Variants of: B6
Conditions: with bmal1_human BMAL1, O00327
Sequence of bmal1_human BMAL1, O00327 (O00327 whole entry): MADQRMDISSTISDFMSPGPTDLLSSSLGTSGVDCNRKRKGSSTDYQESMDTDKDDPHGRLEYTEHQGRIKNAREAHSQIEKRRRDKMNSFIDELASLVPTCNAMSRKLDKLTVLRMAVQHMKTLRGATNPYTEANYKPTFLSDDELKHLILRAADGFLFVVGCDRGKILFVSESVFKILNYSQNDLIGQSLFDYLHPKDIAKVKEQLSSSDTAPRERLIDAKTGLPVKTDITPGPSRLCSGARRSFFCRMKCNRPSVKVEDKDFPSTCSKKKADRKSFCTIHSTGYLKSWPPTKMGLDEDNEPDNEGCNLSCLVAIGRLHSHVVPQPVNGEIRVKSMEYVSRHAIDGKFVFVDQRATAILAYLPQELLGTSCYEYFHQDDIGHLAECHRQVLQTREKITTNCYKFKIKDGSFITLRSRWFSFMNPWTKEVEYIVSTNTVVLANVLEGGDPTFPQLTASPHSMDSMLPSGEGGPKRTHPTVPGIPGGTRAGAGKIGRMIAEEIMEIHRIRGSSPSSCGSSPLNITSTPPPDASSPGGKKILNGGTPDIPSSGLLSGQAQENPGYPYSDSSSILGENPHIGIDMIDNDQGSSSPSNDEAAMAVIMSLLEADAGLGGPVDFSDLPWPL

| Variant | effect of a mutation on the interaction |
| --- | --- |
| L395I | with no effect |
| G235E | with no effect |

Reference: IntAct's records for PubMed 31515488
